For 97 sequences, fraction ligated results are on record in the supplement of paper PMC6755084.

In this series the test system is F1*sub RNA substrate (template-directed ligation). Nature of the series: fraction ligated after 30 min (ligated reads / total reads); higher = more ligase activity; sequences stand for … in GAGACCGCAACTGAAAAGTTGT…AGTTCTGCACGTAGAAGCAAAAGGC
As to conditions: 42 °C. An outline of the steps:
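Ligase ribozyme variants were made from oligo-pool templates by PCR amplification, T7 transcription and gel purification. After gel separation, ligated and unligated bands were reverse transcribed with barcoded primers and sequenced on a MiSeq, with core bases filtered at quality ≥20. The fraction ligated for each variant was the number of ligated reads divided by total reads.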
The sequence “TATCCTTGTCGTAAGACACTTTGGATGGGTTG [2d108]” yielded a fraction ligated of 0.781.

As for TATCCTTGTCGTAAGACACTTTGGATGGGTTGA [1d5], the fraction ligated was 0.789.

Take “TATCCTTGTCGTAAGACACTTTGGATGGTTA [3d1117]”: the fraction ligated amounted to 0.0143.

In the case of “TATCCTTGTCGTAAGACACTTTGGATGGTTG [3d1118]”, the fraction ligated amounted to 0.0169.

“TATCCTTGTCGTAAGACACTTTGGATGGTTGA [2d106]” displayed a fraction ligated of 0.0489.

In turn, “TATCCTTGTCGTAAGACACTTTGGGGGTTGA [3d1110]” showed a fraction ligated of 0.0067.

Sequence “TATCCTTGTCGTAAGACACTTTGGTGGGTTA [3d1112]” had a fraction ligated of 0.0152.

“TATCCTTGTCGTAAGACACTTTGGTGGGTTG [3d1113]” showed a fraction ligated of 0.0948.

Turning to “TATCCTTGTCGTAAGACACTTTGGTGGTTGA [3d1111]”, the fraction ligated is 0.0166.

“TATCCTTGTCGTAAGACACTTTGTGGGTTGA [3d1105]” displayed a fraction ligated of 0.0549.

“TATCCTTGTCGTAAGACATTGGATGGGTTGA [3d1090]” showed a fraction ligated of 0.772.

For “TATCCTTGTCGTAAGACATTTGATGGGTTGA [3d1091]”, the fraction ligated is 0.775.

As for “TATCCTTGTCGTAAGACATTTGGAGGGTTGA [3d1093]”, the fraction ligated amounted to 0.0135.

In turn, “TATCCTTGTCGTAAGACATTTGGATGGGTTA [3d1095]” yielded a fraction ligated of 0.455.

“TATCCTTGTCGTAAGACATTTGGATGGGTTG [3d1096]”: the fraction ligated is 0.772.

In the case of “TATCCTTGTCGTAAGACATTTGGATGGTTGA [3d1094]”, the fraction ligated amounted to 0.0378.

“TATCCTTGTCGTAAGACATTTGGTGGGTTGA [3d1092]” registered a fraction ligated of 0.237.

The sequence “TATCCTTGTCGTAAGACCTTGGATGGGTTGA [3d1083]” yielded a fraction ligated of 0.756.

On to “TATCCTTGTCGTAAGACCTTTGATGGGTTGA [3d1084]”, for which the fraction ligated was determined as 0.762.

Sequence “TATCCTTGTCGTAAGACCTTTGGAGGGTTGA [3d1086]” showed a fraction ligated of 0.0073.

As to “TATCCTTGTCGTAAGACCTTTGGATGGGTTA [3d1088]”, the fraction ligated is 0.347.

As for “TATCCTTGTCGTAAGACCTTTGGATGGGTTG [3d1089]”, the fraction ligated amounted to 0.762.

The sequence “TATCCTTGTCGTAAGACCTTTGGATGGTTGA [3d1087]” yielded a fraction ligated of 0.0339.

On to “TATCCTTGTCGTAAGACCTTTGGTGGGTTGA [3d1085]”, for which the fraction ligated was determined as 0.212.

In the case of “TATCCTTGTCGTAAGACTTTGGATGGGTTGA [3d1065]”, the fraction ligated turned out to be 0.76.

“TATCCTTGTCGTAAGCACTTGGATGGGTTGA [3d1068]” yielded a fraction ligated of 0.685.

With “TATCCTTGTCGTAAGCACTTTGATGGGTTGA [3d1069]”, the fraction ligated stood at 0.754.

“TATCCTTGTCGTAAGCACTTTGGAGGGTTGA [3d1071]” yielded a fraction ligated of 0.0111.

Regarding “TATCCTTGTCGTAAGCACTTTGGATGGGTTA [3d1073]”, the fraction ligated is 0.381.

Consider “TATCCTTGTCGTAAGCACTTTGGATGGGTTG [3d1074]”, for which the fraction ligated is 0.768.

Take “TATCCTTGTCGTAAGCACTTTGGATGGTTGA [3d1072]”: the fraction ligated turned out to be 0.0464.

Regarding “TATCCTTGTCGTAAGCACTTTGGTGGGTTGA [3d1070]”, the fraction ligated turned out to be 0.0868.

As for “TATCCTTGTCGTAAGCATTTGGATGGGTTGA [3d1067]”, the fraction ligated worked out at 0.763.

Sequence “TATCCTTGTCGTAAGCCTTTGGATGGGTTGA [3d1066]” gave a fraction ligated of 0.75.

Regarding “TATCCTTGTCGTAGAACTTTGGATGGGTTGA [3d1045]”, the fraction ligated turned out to be 0.792.

On to “TATCCTTGTCGTAGACACTTGGATGGGTTGA [3d1048]”, for which the fraction ligated worked out at 0.782.

On to “TATCCTTGTCGTAGACACTTTGATGGGTTGA [3d1049]”, for which the fraction ligated was determined as 0.804.

In the case of “TATCCTTGTCGTAGACACTTTGGAGGGTTGA [3d1051]”, the fraction ligated worked out at 0.00532.

“TATCCTTGTCGTAGACACTTTGGATGGGTTA [3d1053]” displayed a fraction ligated of 0.398.

In the case of “TATCCTTGTCGTAGACACTTTGGATGGGTTG [3d1054]”, the fraction ligated was found to be 0.786.

TATCCTTGTCGTAGACACTTTGGATGGGTTGA [2d96]: the fraction ligated was found to be 0.79.

Consider “TATCCTTGTCGTAGACACTTTGGATGGTTGA [3d1052]”, for which the fraction ligated stood at 0.0426.

“TATCCTTGTCGTAGACACTTTGGTGGGTTGA [3d1050]”: the fraction ligated came out at 0.26.

With “TATCCTTGTCGTAGACATTTGGATGGGTTGA [3d1047]”, the fraction ligated is 0.768.

For the sequence “TATCCTTGTCGTAGACCTTTGGATGGGTTGA [3d1046]”, the fraction ligated was determined as 0.773.

As to “TATCCTTGTCGTAGCACTTTGGATGGGTTGA [3d1044]”, the fraction ligated stood at 0.774.

Regarding “TATCCTTGTCGTGACACTTTGGATGGGTTGA [3d1042]”, the fraction ligated worked out at 0.798.

In turn, “TATCCTTGTCTAAACACTTTGGATGGGTTGA [3d1017]” registered a fraction ligated of 0.793.

On to “TATCCTTGTCTAAGAACTTTGGATGGGTTGA [3d1019]”, for which the fraction ligated was 0.764.

“TATCCTTGTCTAAGACACTTGGATGGGTTGA [3d1022]” returned a fraction ligated of 0.764.

“TATCCTTGTCTAAGACACTTTGATGGGTTGA [3d1023]” gave a fraction ligated of 0.748.

On to “TATCCTTGTCTAAGACACTTTGGAGGGTTGA [3d1025]”, for which the fraction ligated came out at 0.0172.

With “TATCCTTGTCTAAGACACTTTGGATGGGTTA [3d1027]”, the fraction ligated came out at 0.394.

Sequence “TATCCTTGTCTAAGACACTTTGGATGGGTTG [3d1028]” showed a fraction ligated of 0.773.

Sequence TATCCTTGTCTAAGACACTTTGGATGGGTTGA [2d94] showed a fraction ligated of 0.798.

For the sequence “TATCCTTGTCTAAGACACTTTGGATGGTTGA [3d1026]”, the fraction ligated amounted to 0.047.

With “TATCCTTGTCTAAGACACTTTGGTGGGTTGA [3d1024]”, the fraction ligated turned out to be 0.19.

In the case of “TATCCTTGTCTAAGACATTTGGATGGGTTGA [3d1021]”, the fraction ligated is 0.793.

As to “TATCCTTGTCTAAGACCTTTGGATGGGTTGA [3d1020]”, the fraction ligated worked out at 0.786.

In turn, “TATCCTTGTCTAAGCACTTTGGATGGGTTGA [3d1018]” registered a fraction ligated of 0.765.

“TATCCTTGTCTAGACACTTTGGATGGGTTGA [3d1016]” yielded a fraction ligated of 0.763.

As to “TATCCTTGTGAAGACACTTTGGATGGGTTGA [3d1001]”, the fraction ligated amounted to 0.792.

“TATCCTTGTGTAAACACTTTGGATGGGTTGA [3d1003]”: the fraction ligated was found to be 0.8.

On to “TATCCTTGTGTAAGAACTTTGGATGGGTTGA [3d1005]”, for which the fraction ligated is 0.818.

Take “TATCCTTGTGTAAGACACTTGGATGGGTTGA [3d1008]”: the fraction ligated turned out to be 0.367.

The sequence “TATCCTTGTGTAAGACACTTTGATGGGTTGA [3d1009]” registered a fraction ligated of 0.799.

“TATCCTTGTGTAAGACACTTTGGAGGGTTGA [3d1011]” returned a fraction ligated of 0.0114.

With “TATCCTTGTGTAAGACACTTTGGATGGGTTA [3d1013]”, the fraction ligated stood at 0.406.

In turn, “TATCCTTGTGTAAGACACTTTGGATGGGTTG [3d1014]” displayed a fraction ligated of 0.745.

In turn, TATCCTTGTGTAAGACACTTTGGATGGGTTGA [2d93] registered a fraction ligated of 0.792.

For “TATCCTTGTGTAAGACACTTTGGATGGTTGA [3d1012]”, the fraction ligated turned out to be 0.0285.

Sequence “TATCCTTGTGTAAGACACTTTGGTGGGTTGA [3d1010]” yielded a fraction ligated of 0.062.

Sequence “TATCCTTGTGTAAGACATTTGGATGGGTTGA [3d1007]” displayed a fraction ligated of 0.796.

“TATCCTTGTGTAAGACCTTTGGATGGGTTGA [3d1006]”: the fraction ligated came to 0.801.

Consider “TATCCTTGTGTAAGCACTTTGGATGGGTTGA [3d1004]”, for which the fraction ligated was 0.788.

In the case of “TATCCTTGTGTAGACACTTTGGATGGGTTGA [3d1002]”, the fraction ligated worked out at 0.808.

As to “TATCCTTGTTAAGACACTTTGGATGGGTTGA [3d1000]”, the fraction ligated stood at 0.793.

TATCCTTTCGAAGACACTTTGGATGGGTTGA [3d970]: the fraction ligated worked out at 0.8.

Regarding TATCCTTTCGTAAACACTTTGGATGGGTTGA [3d972], the fraction ligated is 0.795.

Take TATCCTTTCGTAAGAACTTTGGATGGGTTGA [3d974]: the fraction ligated is 0.797.

In the case of TATCCTTTCGTAAGACACTTGGATGGGTTGA [3d977], the fraction ligated stood at 0.76.

Take TATCCTTTCGTAAGACACTTTGATGGGTTGA [3d978]: the fraction ligated turned out to be 0.77.

The sequence TATCCTTTCGTAAGACACTTTGGAGGGTTGA [3d980] displayed a fraction ligated of 0.0203.

TATCCTTTCGTAAGACACTTTGGATGGGTTA [3d982] displayed a fraction ligated of 0.371.

Consider TATCCTTTCGTAAGACACTTTGGATGGGTTG [3d983], for which the fraction ligated stood at 0.766.

TATCCTTTCGTAAGACACTTTGGATGGGTTGA [2d91] returned a fraction ligated of 0.786.

TATCCTTTCGTAAGACACTTTGGATGGTTGA [3d981]: the fraction ligated is 0.0298.

In turn, TATCCTTTCGTAAGACACTTTGGTGGGTTGA [3d979] came in with a fraction ligated of 0.0729.

The sequence TATCCTTTCGTAAGACATTTGGATGGGTTGA [3d976] had a fraction ligated of 0.787.

TATCCTTTCGTAAGACCTTTGGATGGGTTGA [3d975] registered a fraction ligated of 0.771.

As for TATCCTTTCGTAAGCACTTTGGATGGGTTGA [3d973], the fraction ligated is 0.77.

Sequence TATCCTTTCGTAGACACTTTGGATGGGTTGA [3d971] showed a fraction ligated of 0.766.

On to TATCCTTTCTAAGACACTTTGGATGGGTTGA [3d969], for which the fraction ligated was 0.796.

On to TATCCTTTGTAAGACACTTTGGATGGGTTGA [3d968], for which the fraction ligated was found to be 0.772.

TATCTGTCGTAAGACACTTTGGATGGGTTGA [3d739]: the fraction ligated amounted to 0.775.

In the case of TATCTTGCGTAAGACACTTTGGATGGGTTGA [3d741], the fraction ligated was 0.828.

Regarding TATCTTGTCGAAGACACTTTGGATGGGTTGA [3d744], the fraction ligated is 0.755.
